Assay results published in the supplement of paper PMC7125110.
± gives the standard error. For some of these results: This sample holds only a part of the variants without activity.

B1: glmS ribozyme (parent)
chain: AUAAAAGCGCCAGAACUACAGAAAUGUAGUUGACGAGGAGGAGGUUUAUCGAAUUUUCGGCGGAUGCCUCCAAA

What was measured:
Settings in all cases: with glucosamine-6-phosphate
glucosamine-6-phosphate [1] = variants of: B1; test: kcat; higher = faster cleavage; RNA array
Outline: (§1)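 Sequenced MiSeq chips were the platform: E. coli RNA polymerase transcribed barcoded ribozyme variants on them in situ, and a hybridised Cy3 probe tracked these at 37 °C. After glucosamine-6-phosphate (40 μM to 10 mM) in HEPES/KCl/Mg(OAc)2 buffer was flowed in, tiles were imaged over ~14 h. Signals normalised to baseline and to non-cleaving reference variants were reduced to per-tile medians and fit to one- or two-exponential decays to obtain kobs. kcat and KM were derived through weighted Michaelis–Menten fits across concentrations.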

glucosamine-6-phosphate [2] = variants of: B1; test: KM; higher = weaker cofactor use; RNA array
Outline: as §1

glucosamine-6-phosphate [3] = variants of: B1; test: self-cleavage kobs at 40 uM GlcN6P; higher = faster cleavage; RNA array
Outline: as §1

glucosamine-6-phosphate [4] = variants of: B1; test: self-cleavage kobs at 160 uM GlcN6P; higher = faster cleavage; RNA array
Outline: as §1

glucosamine-6-phosphate [5] = variants of: B1; test: self-cleavage kobs at 640 uM GlcN6P; higher = faster cleavage; RNA array
Outline: as §1

glucosamine-6-phosphate [6] = variants of: B1; test: self-cleavage kobs at 2500 uM GlcN6P; higher = faster cleavage; RNA array
Outline: as §1

glucosamine-6-phosphate [7] = variants of: B1; test: self-cleavage kobs at 10000 uM GlcN6P; higher = faster cleavage; RNA array
Outline: as §1

Row | Variant | kcat (glucosamine-6-phosphate [1]) [s⁻¹] | KM (glucosamine-6-phosphate [2]) [µM] | self-cleavage kobs at 40 uM GlcN6P (glucosamine-6-phosphate [3]) [s⁻¹] | self-cleavage kobs at 160 uM GlcN6P (glucosamine-6-phosphate [4]) [s⁻¹] | self-cleavage kobs at 640 uM GlcN6P (glucosamine-6-phosphate [5]) [s⁻¹] | self-cleavage kobs at 2500 uM GlcN6P (glucosamine-6-phosphate [6]) [s⁻¹] | self-cleavage kobs at 10000 uM GlcN6P (glucosamine-6-phosphate [7]) [s⁻¹]
1 | A53G U56G | 0.0121 ± 0.004 | 1150 ± 530 | 0.000497 ± 5.8e-05 | 0.00116 ± 0.00024 | 0.00411 ± 0.00066 | 0.00635 ± 0.0012 | 0.0161 ± 0.0025
2 | G32A A33U | 5.7e-05 ± 3e-06 | 4530 ± 700 |  |  |  |  | 3.92e-05 ± 6.3e-06
3 | C10G A14G G32C G37A C67G | 2.2e-05 ± 6.4e-06 |  |  |  |  |  | 
4 | C11G C61U | < 1e-05 |  | < 1e-05 | < 1e-05 |  | < 1e-05 | < 1e-05
5 | G41C U65A | 7.02e-05 ± 4.5e-06 | 1620 ± 350 | < 1e-05 |  |  | 4.49e-05 ± 1e-05 | 5.94e-05 ± 1.1e-05
6 | A39U G62A | < 1e-05 |  | < 1e-05 | < 1e-05 | < 1e-05 |  | 
7 | G29C A64G | 0.00121 ± 0.00056 |  | 3.98e-05 ± 1.1e-05 | 0.000126 ± 2.9e-05 | 0.000339 ± 5.2e-05 | 0.000495 ± 0.00014 | 0.00181 ± 0.00034
8 | A39C C71U | 0.00106 ± 0.00018 | 1570 ± 470 | 4.78e-05 ± 7.5e-06 | 9.02e-05 ± 1.2e-05 | 0.000275 ± 3.1e-05 | 0.000738 ± 8.5e-05 | 0.000904 ± 7.4e-05
9 | G32C U45A | 0.000238 ± 2.8e-05 | 3690 ± 1000 |  |  | 2.9e-05 ± 1.3e-05 | 0.000113 ± 2.7e-05 | 0.000171 ± 2.3e-05
10 | U47A | 0.0447 ± 0.0064 | 2150 ± 360 | 0.00084 ± 1.5e-05 | 0.00266 ± 0.00018 | 0.00994 ± 0.00044 | 0.0201 ± 0.0011 | 0.0412 ± 0.0016
11 | U47G A48G | 8.61e-05 ± 8.6e-06 |  |  |  | 4.31e-05 ± 1.6e-05 | 8.59e-05 ± 1.7e-05 | 7.67e-05 ± 1.3e-05
12 | G32A U46C | 0.000236 ± 2.1e-05 | 1770 ± 290 |  |  | 6.49e-05 ± 8.9e-06 | 0.000126 ± 2.3e-05 | 0.000209 ± 3.3e-05
13 | G32A U46A | 0.000607 ± 2.1e-05 |  |  |  | 2.22e-05 ± 1.1e-05 | 7.83e-05 ± 2.1e-05 | 0.000226 ± 2.7e-05
14 | A15G A36G | 1.79e-05 ± 1.6e-07 | 8450 ± 150 |  |  |  |  | 
15 | G44C G66U | < 1e-05 |  | < 1e-05 | < 1e-05 | < 1e-05 |  | < 1e-05
16 | A14C G35C | < 1e-05 |  | < 1e-05 |  |  |  | < 1e-05
